Patent US20030228309A1 (published 2003)

How the values were obtained:
[1] = molecular target: T1, Biotinylated TRAIL (AM100200-Peprotech) (Homo sapiens (Human), UniProt P50591 114-281, biotinylated (sites not given)); experiment: competition ELISA, soluble TR4 (TR4-Fc positive control) competes with plate-captured TR4-Fc for biotinylated TRAIL; assay 1
Method: (§1) Goat anti-human Fc was diluted to 0.1 micrograms/ml in coating buffer. The Immulon 4 microplate was coated with 100 microliters per well of the Goat anti-human Fc solution and incubated overnight at 4° C. The coating solution was decanted from the plate, and blocking solution was dispensed at 200 microliters per well. The plate was incubated at room temperature for 1 hour. After the 1 hour incubation period, the blocking solution was decanted from the plate and 1 microgram/mL of TR4-Fc was dispensed at 100 microliters/well and incubated for 2 hours at room temperature. After the incubation, the plate was washed five times manually using a Wheaton manifold.
(§2) Hybridoma supernatants were (previously) prepared in a low binding dilution plate using diluent. The supernatants were prepared in duplicate and were diluted from the stock concentration with 2.5 fold dilutions for the 7 subsequent wells. If a purified form of the antibody was available, the starting concentration was 5 micrograms/mL. The positive control (TR4-Fc) was diluted from 5 micrograms/mL. 100 microliters was transferred into the ELISA plate and pre-incubated for 30 minutes at room temperature. 20 microliters of biotinylated TRAIL was added at 5 micrograms/mL to the 100 gL of the supernatant and mixed. The combined 120 microliters incubated for 2 hours at RT. […]

[2] = molecular target: T1, Biotinylated TRAIL (AM100200-Peprotech); experiment: competition ELISA, soluble TR4 (TR4-Fc positive control) competes with plate-captured TR4-Fc for biotinylated TRAIL; assay 2
Method: as §1, §2

T1 sequence (P50591 114-281 limits assumed): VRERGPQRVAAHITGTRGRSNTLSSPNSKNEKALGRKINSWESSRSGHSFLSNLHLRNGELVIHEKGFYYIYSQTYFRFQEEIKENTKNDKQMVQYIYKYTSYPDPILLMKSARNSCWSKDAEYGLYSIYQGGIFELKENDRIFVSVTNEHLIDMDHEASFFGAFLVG

B1: TR4-Fc fusion protein (Fc fusion)
chain: ATIKLHDQSIGTQQWEHSPLGELCPPGSHRSERPGACNRCTEGVGYTNASNNLFACLPCTACKSDEEERSPCTTTRNTACQCKPGTFRNDNSAEMCRKCSTGCPRGMVKVKDCTPWSDIECVHKESGNGHNI
notes: also called TR4 (in the form of Fc fusion protein); not shown: Fc region
For B1, the IC50 [1] was 0.491 µg/mL and the IC50 [2] was 0.284 µg/mL.
